Molecular target: the molecule itself
Experiment: SEC; Superdex 200 10/300 GL, column pre-calibrated with molecular weight markers; 20 mM Tris-HCl pH 8.0, 150 mM NaCl, 1 mM DTT; self-association in solution

B1: S-OPA1 (short S1 isoform of human OPA1, splice form 1), wild type (natural protein, UniProt O60313 196-960, looked up)
chain: TDRGSESDKHFRKVSDKEKIDQLQEELLHTQLKYQRILERLEKENKELRKLVLQKDDKGIHHRKLKKSLIDMYSEVLDVLSDYDASYNTQDHLPRVVVVGDQSAGKTSVLEMIAQARIFPRGSGEMMTRSPVKVTLSEGPHHVALFKDSSREFDLTKEEDLAALRHEIELRMRKNVKEGCTVSPETISLNVKGPGLQRMVLVDLPGVINTVTSGMAPDTKETIFSISKAYMQNPNAIILCIQDGSVDAERSIVTDLVSQMDPHGRRTIFVLTKVDLAEKNVASPSRIQQIIEGKLFPMKALGYFAVVTGKGNSSESIEAIREYEEEFFQNSKLLKTSMLKAHQVTTRNLSLAVSDCFWKMVRESVEQQADSFKATRFNLETEWKNNYPRLRELDRNELFEKAKNEILDEVISLSQVTPKHWEEILQQSLWERVSTHVIENIYLPAAQTMNSGTFNTTVDIKLKQWTDKQLPNKAVEVAWETLQEEFSRFMTEPKGKEHDDIFDKLKEAVKEESIKRHKWNDFAEDSLRVIQHNALEDRSISDKQQWDAAIYFMEEALQARLKDTENAIENMVGPDWKKRWLYWKNRTQEQCVHNETKNELEKMLKCNEEHPAYLASDEITTVRKNLESRGVEVDPSLIKDTWHQVYRRHFLKTALNHCNLCRRGFYYYQRHFVDSELECNDVVLFWRIQRMLAITANTLRQQLTNTEVRRLEKNVKEVLEDFAEDGEKKIKLLTGKRVQLAEDLKKVREIQEKLDAFIEALHQEK
notes: Optic atrophy 1 (OPA1), human, splice form 1 (isoform 1); Dimer in solution by gel filtration, BS3 cross-linking and SEC-MALS; The first residue is worked out from the S1 site (195th residue) and the name of the deletion Δ196-252; also called WT; full-length S-OPA1; source: E. coli Transetta (DE3), purified (Ni-NTA, PreScission cleavage, Superdex 200 gel filtration); not shown: Trx, N-terminal, …
- stoichiometry N: 2

Source: article PMC7156267, “Cryo-EM structures of S-OPA1 reveal its interactions with membrane and changes upon nucleotide binding” (eLife, 2020)
